Measurements taken from article PMC10641069, “Intra- and inter-molecular regulation by intrinsically-disordered regions governs PUF protein RNA binding” (Nature Communications, 2023).
Residue numbers refer to the chain shown, from its start. Several values for one entry are separate records, joined by “and”; a condition that tells them apart may be missing. Identical values can stand only once. Entries after “also recorded” stand apart in the source; their conditions may differ. Like-named read-outs stand apart in the source and are kept apart here.

What was measured:
FBF-2 RBD [1] = biological target: T1, FBF-2 RBD (Caenorhabditis elegans, UniProt Q09312); type: binding, C. elegans; settings: mean of two independent replicates, 20 °C, 20 mM HEPES pH 7.4, 150 mM NaCl, 0.5 mM TCEP, one-site model
T1 construct: The FBF-2 RBD protein (residue 164-575) was purified as described previously; His6-SUMO (N, cleaved yes); made in house; host or cells: E. coli BL21-CodonPlus (DE3)-RIL (host inferred: b50 says the procedure was otherwise the same as for RBD + CT)
T1 sequence (Q09312 whole entry, looked up): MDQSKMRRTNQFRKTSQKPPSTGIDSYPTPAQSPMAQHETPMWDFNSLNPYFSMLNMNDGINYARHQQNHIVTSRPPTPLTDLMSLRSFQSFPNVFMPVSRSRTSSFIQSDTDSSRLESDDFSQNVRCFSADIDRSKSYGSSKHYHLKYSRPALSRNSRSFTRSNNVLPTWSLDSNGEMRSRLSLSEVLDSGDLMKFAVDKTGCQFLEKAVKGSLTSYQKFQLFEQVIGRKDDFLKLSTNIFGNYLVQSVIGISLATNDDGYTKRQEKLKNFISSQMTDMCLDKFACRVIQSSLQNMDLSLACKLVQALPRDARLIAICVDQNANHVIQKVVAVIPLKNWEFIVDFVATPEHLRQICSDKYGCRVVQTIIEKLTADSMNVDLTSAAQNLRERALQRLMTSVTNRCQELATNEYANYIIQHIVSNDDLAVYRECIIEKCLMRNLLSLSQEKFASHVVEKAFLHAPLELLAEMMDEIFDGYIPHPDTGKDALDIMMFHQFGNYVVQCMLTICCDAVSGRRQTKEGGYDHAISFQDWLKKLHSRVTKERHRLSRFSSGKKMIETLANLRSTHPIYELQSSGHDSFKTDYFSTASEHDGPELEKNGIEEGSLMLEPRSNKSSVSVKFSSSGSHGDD
Description: To assess that idea, we investigated how the CT affects the protein interaction affinities of the FBF-2 RBD to LST-1 A and LST-1 B, using isothermal titration calorimetry (ITC, Supplementary Table 3). No RNA was included in these experiments.
Experiments were performed at 20 °C using a MicroCal PEAQ-ITC Automated (Malvern Instruments) with a 200-μL standard cell and a 40-μL titration syringe. FBF-2 and LST-1 variants were prepared in a buffer of 20 mM HEPES pH 7.4, 150 mM NaCl, and 0.5 mM TCEP by gel filtration. LST-1 (100–400 µM) was titrated from the syringe into the cell containing FBF-2 (10–30 µM) in 2 µl aliquots. Experiments were performed in duplicate due to the limitation of the amount of protein needed. Data were analyzed using the MicroCal PEAQ-ITC Analysis Software (version 1.40) provided by the manufacturer with the one-site model (Table S3).
Supplementary Table 3. Protein interaction affinities, stoichiometries, and thermodynamic parameters between FBF-2 CT/LST-1 variants and FBF-2 measured by ITC. Two technical replicates (n=2 independent experiments) were performed for each analysis with similar results, and the values are shown for each replicate. Source data are provided as a Source Data file. […]
RBD+CT LST-1 A none Not detected
RBD FBF-2 CT none Not detected
1 Reported previously 18.

FBF-2 RBD + CT = biological target: T2, FBF-2 RBD + CT (Caenorhabditis elegans, UniProt Q09312); assay: ITC, peptide into FBF-2 RBD + CT, no RNA; type: binding, C. elegans; settings: mean of two independent replicates; 20 °C, 20 mM HEPES pH 7.4, 150 mM NaCl, 0.5 mM TCEP; one-site model
T2 construct: A cDNA fragment encoding C. elegans FBF-2 RBD + CT (residues 164-632) was cloned into the pSMT3 vector; His6-SUMO (N, cleaved yes); made in house; host or cells: E. coli BL21-CodonPlus (DE3)-RIL
T2 sequence (Q09312 whole entry, looked up): T1 sequence (Q09312 whole entry, looked up)

FBF-2 RBD + CT L610A [2] = biological target: T3, FBF-2 RBD + CT L610A (Caenorhabditis elegans, UniProt Q09312, L610A); type: binding, C. elegans; settings: pH 7.4
T3 construct: A cDNA fragment encoding C. elegans FBF-2 RBD + CT (residues 164-632) was cloned into the pSMT3 vector; His6-SUMO (N, cleaved yes); made in house; host or cells: E. coli BL21-CodonPlus (DE3)-RIL (as for wild type)

FBF-2 RBD [3] = biological target: T1, FBF-2 RBD; settings: reported previously, cited from earlier work
Text: Given that the core residues of three distinct PIMs—FBF-2 CT, LST-1 A, and LST-1 B—all bind to the same site of FBF-2, we hypothesized that the intramolecular FBF-2 CT binding could compete with LST-1 A and LST-1 B binding. To assess that idea, we investigated how the CT affects the protein interaction affinities of the FBF-2 RBD to LST-1 A and LST-1 B, using isothermal titration calorimetry (ITC, Supplementary Table 3). No RNA was included in these experiments. We first measured the binding affinity of an isolated CT peptide and the FBF-2 RBD (no CT), by titrating the peptide, FBF-2^601–632, ... || Fig. 2 The FBF-2 CT competes with partner proteins for binding to the RBD. Representative isothermal titration calorimetry thermograms (top, differential power [DP] vs time) and corresponding titration curve-fitting graphs (bottom) are shown for interaction between a FBF-2 RBD and FBF-2 CT, c FBF-2 RBD + CT and LST-1 A, d FBF-2 RBD + CT and LST-1 B, e FBF-2 RBD and FBF-2 CT L610A, f FBF-2 RBD + CT L610A and LST-1 A, and g FBF-2 RBD + CT L610A and LST-1 B. Data points on the curve-fitting graphs are shown as open circles. b Previously reported mean Kd from two independent replicates with simila ... || We next compared the protein interaction affinities of LST-1 A or LST-1 B with either FBF-2 RBD + CT or RBD alone (Fig. 2c–g, Supplementary Table 3). For these experiments, we titrated the LST-1 peptide into an ITC cell containing either RBD + CT or RBD.

gld-1 FBEa RNA = settings: LST-1 peptide with FBF-2 RBD (no CT); cited from earlier work
Text: LST-1 is expressed in GSCs in response to signaling from the stem cell niche. The LST-1 protein is largely unstructured (Fig. 1b), including an N-terminal region that is sufficient for self-renewal of GSCs[22]. This LST-1 IDR region harbors two PUF Interacting Motifs (PIMs), LST-1 A and LST-1 B, that interact with FBF-2, each with a KxxL sequence[17],[22]. Crystal structures of FBF-2 bound to LST-1 A or B identify a seven-residue core region, including the KxxL sequence, that binds to FBF-2 with similar peptide backbone structure[17],[18]. The two LST-1 PIMs are biologically redundant for ... || If the FBF-2 CT reduces RNA-binding affinity (Fig. 3b) and competes with LST-1 for binding (Fig. 2c, d), why then does FBF-2 depend on LST-1 to repress RNAs in nematodes? To address this question, we explored RNA-binding affinities of FBF-2 RBD + CT in the presence of either LST-1 A or LST-1 B (Fig. 6; Supplementary Table 3). In contrast to results with FBF-2 RBD alone[17],[18], both LST-1 A and LST-1 B increased the RNA-binding affinity of FBF-2 RBD + CT.

[4] = biological target: T4, FBF-2 RBD (FBF-2 residues 164-575) (C. elegans, UniProt Q09312 164-575); assay: ITC; peptide (100–400 µM) titrated from the syringe into the cell containing FBF-2 (10–30 µM); 20 °C; 20 mM HEPES pH 7.4, 150 mM NaCl, 0.5 mM TCEP; no RNA; one-site model; mean of two replicates; settings: both partners purified
T4 construct: The tag was cleaved with TEV protease; also called FBF-2^164–575; RBD alone; source: E. coli, purified (Ni-NTA, heparin, Superdex 75); not shown: His6-SUMO, N-terminal, cleaved
T4 sequence (looked up): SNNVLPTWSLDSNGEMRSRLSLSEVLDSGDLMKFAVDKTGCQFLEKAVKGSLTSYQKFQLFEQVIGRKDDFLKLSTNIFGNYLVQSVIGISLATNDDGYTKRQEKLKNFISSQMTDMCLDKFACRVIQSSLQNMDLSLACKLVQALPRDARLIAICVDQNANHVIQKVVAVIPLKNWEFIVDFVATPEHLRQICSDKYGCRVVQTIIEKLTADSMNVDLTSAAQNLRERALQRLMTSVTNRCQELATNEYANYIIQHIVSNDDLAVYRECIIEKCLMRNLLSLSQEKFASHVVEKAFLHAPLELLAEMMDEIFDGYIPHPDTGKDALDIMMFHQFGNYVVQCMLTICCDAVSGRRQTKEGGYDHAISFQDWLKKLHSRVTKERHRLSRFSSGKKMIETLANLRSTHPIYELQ

[5] = biological target: T5, FBF-2 RBD + CT (FBF-2 residues 164-632) (C. elegans, UniProt Q09312 164-632); assay: cell-based or functional assay
T5 sequence (looked up): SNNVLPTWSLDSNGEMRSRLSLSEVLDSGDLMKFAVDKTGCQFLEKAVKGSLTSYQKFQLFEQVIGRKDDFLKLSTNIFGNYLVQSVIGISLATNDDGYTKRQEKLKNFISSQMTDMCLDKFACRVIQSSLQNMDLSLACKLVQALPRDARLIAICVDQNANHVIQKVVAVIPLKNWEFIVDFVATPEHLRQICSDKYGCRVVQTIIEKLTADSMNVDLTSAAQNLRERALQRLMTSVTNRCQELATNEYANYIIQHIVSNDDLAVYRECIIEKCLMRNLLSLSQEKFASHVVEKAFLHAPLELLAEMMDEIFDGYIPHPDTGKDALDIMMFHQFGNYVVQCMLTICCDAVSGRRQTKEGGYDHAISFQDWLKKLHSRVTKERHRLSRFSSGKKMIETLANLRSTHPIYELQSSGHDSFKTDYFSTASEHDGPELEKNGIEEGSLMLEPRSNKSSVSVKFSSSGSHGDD

[6] = biological target: T6, FBF-2 RBD (FBF-2 residues 164-575) (C. elegans, UniProt Q09312 164-575); assay: ITC
T6 chain: T4 sequence (looked up)

FBF-2 RBD + CT L610A [7] = biological target: T7, FBF-2 RBD + CT L610A (C. elegans, UniProt Q09312 164-632, L610A); assay: ITC
T7 sequence: T5 sequence (looked up) with L447A

[8] = biological target: T6, FBF-2 RBD (FBF-2 residues 164-575); assay: ITC
FBF-2 RBD + CT L610A [9] = biological target: T8, FBF-2 RBD + CT L610A (C. elegans, UniProt Q09312 164-632, L610A); assay: ITC; peptide (100–400 µM) titrated from the syringe into the cell containing FBF-2 (10–30 µM); 20 °C; 20 mM HEPES pH 7.4, 150 mM NaCl, 0.5 mM TCEP; no RNA; one-site model; mean of two replicates; settings: both partners purified
T8 construct: source: E. coli, expressed and purified like wild type proteins; not shown: His6-SUMO, N-terminal, cleaved
T8 sequence (looked up): T5 sequence (looked up) with L447A

T3 sequence (Q09312 164-632 L610A): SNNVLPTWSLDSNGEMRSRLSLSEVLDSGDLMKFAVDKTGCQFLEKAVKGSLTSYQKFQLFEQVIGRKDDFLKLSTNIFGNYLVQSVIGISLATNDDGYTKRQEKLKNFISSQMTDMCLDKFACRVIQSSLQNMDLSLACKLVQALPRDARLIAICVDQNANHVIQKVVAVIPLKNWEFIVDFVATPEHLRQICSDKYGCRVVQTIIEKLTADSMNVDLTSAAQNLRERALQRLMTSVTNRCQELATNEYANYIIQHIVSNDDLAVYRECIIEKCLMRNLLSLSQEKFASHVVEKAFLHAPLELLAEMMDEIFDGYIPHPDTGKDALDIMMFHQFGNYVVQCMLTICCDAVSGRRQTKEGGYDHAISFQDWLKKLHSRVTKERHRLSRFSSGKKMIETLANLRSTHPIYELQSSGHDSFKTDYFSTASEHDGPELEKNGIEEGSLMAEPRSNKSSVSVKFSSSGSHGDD

FBF-2 CT L610A: FBF-2 CT (601-632) with L610A (NGIEEGSLMAEPRSNKSSVSVKFSSSGSHGDD)
Kd (FBF-2 RBD [1]): No binding; also recorded: Not detected
Kd (FBF-2 RBD [1]; listed as CT peptide with L610A): No binding was detected

LST-1 A: LST-1 A peptide, residues 19–50, expressed in E. coli (STIAYSKSQHEAPKQLLQLRSEIKPLIPLNQP; left off: His6-SUMO, N-terminal, cleaved)
Kd (FBF-2 RBD + CT): No binding; also recorded: too weak to be detected by ITC; also recorded: Not detected
∆G (FBF-2 RBD + CT L610A [2]): -7.62 kcal/mol
-T∆S (FBF-2 RBD + CT L610A [2]; replicate 1, 20 °C): 4.45 kcal/mol
∆G (FBF-2 RBD + CT L610A [2]; replicate 1, 20 °C): -7.5 kcal/mol
∆H (FBF-2 RBD + CT L610A [2]; replicate 1, 20 °C): -12 kcal/mol
-T∆S (FBF-2 RBD + CT L610A [2]; replicate 2, 20 °C): 4.73 kcal/mol
∆H (FBF-2 RBD + CT L610A [2]; replicate 2, 20 °C): -12.4 kcal/mol
-T∆S (FBF-2 RBD [3]; replicate 1): 6.07 kcal/mol
∆G (FBF-2 RBD [3]; replicate 1): -7.62 kcal/mol
∆H (FBF-2 RBD [3]; replicate 1): -13.7 kcal/mol
-T∆S (FBF-2 RBD [3]; replicate 2): 6 kcal/mol
∆G (FBF-2 RBD [3]; replicate 2): -7.65 kcal/mol
∆H (FBF-2 RBD [3]; replicate 2): -13.6 kcal/mol
effect on RNA-binding affinity of FBF-2 RBD (gld-1 FBEa RNA): no effect on RNA-binding affinity

B1: FBF-2 CT peptide (FBF-2 residues 601-632) (peptide, UniProt Q09312 601-632, looked up)
chain: NGIEEGSLMLEPRSNKSSVSVKFSSSGSHGDD
notes: holds the PIM SLMLEPR (607-613); The tag was cleaved with Ulp1 protease; also called FBF-2^601–632; source: E. coli BL21-CodonPlus (DE3)-RIL, purified (Ni-NTA, HiTrap Q flow-through, Superdex 75); not shown: His6-SUMO, N-terminal, cleaved
Kd [4]: 35000 nM

B2: LST-1 A peptide (LST-1 residues 19-50) (peptide, UniProt P91820 19-50, looked up)
chain: STIAYSKSQHEAPKQLLQLRSEIKPLIPLNQP
notes: The tag was cleaved with Ulp1 protease; also called LST-1^19–50; source: E. coli, purified (Ni-NTA, HiTrap Q flow-through, Superdex 75); not shown: His6-SUMO, N-terminal, cleaved
RNA-binding affinity of FBF-2 RBD + CT for gld-1 FBEa RNA by EMSA in the presence of 150 µM LST-1 A [5]: 3 fold
Kd [6]: 2100 nM
Kd (FBF-2 RBD + CT L610A [7]): 2100 nM and 2600 nM
Kd [8]: 2130 nM and 2020 nM
Kd (FBF-2 RBD + CT L610A [9]): 2400 nM
